{"source": "paper PMC3105379", "test_in_all_cases": "other fluorescence titration", "key": {"[1]": {"target": "BIQ, fluorescent reporter containing an IQ domain sequence derived from neuromodulin (UniProt P17677)"}, "[2]": {"target": "BIQG^6A, variant of BIQ with replacement A for the G at position 6"}, "[3]": {"target": "BIQ, fluorescent reporter containing an IQ domain sequence derived from neuromodulin (UniProt P17677)", "remark": "listed apart in the source"}, "[4]": {"target": "BIQG^6A, variant of BIQ with replacement A for the G at position 6", "remark": "listed apart in the source"}, "[5]": {"target": "BIQG^6R, variant of BIQ with replacement R for the G at position 6"}, "[6]": {"target": "BIQG^6M, variant of BIQ with replacement M for the G at position 6"}}, "note": "Like-named read-outs stand apart in the source and are kept apart here."}
{"substance": "calmodulin (native CaM) (from UniProt P0DP23 1-149) (natural protein)", "values": [{"measurement": "Kd", "setting": "[1]", "result": 2.4, "unit": "µM"}, {"measurement": "Kd", "setting": "[2]", "result": 5.4, "unit": "µM"}, {"measurement": "Kd", "setting": "[3]", "result": 2.9, "unit": "µM"}, {"measurement": "Kd", "setting": "[4]", "result": 0.9, "unit": "µM"}, {"measurement": "Kd", "setting": "[5]", "result": 0.4, "unit": "µM"}, {"measurement": "Kd", "setting": "[6]", "result": 0.4, "unit": "µM"}]}
